Biological target: authentic E1A 243R protein, purified from bacteria (adenovirus, UniProt P03255-2 1-243)
Assay: pull-down

B1: GST-p21 Δ1-80 (domain or fragment)
chain: TGPRRGRDELGGGRRPGTSPALLQGTAEEDHVDLSLSCTLVPRSGEQAEGSPGGPGDSQGRKRRQTSMTDFYHSKRRLIFSKRKP
- binding result: binds

From publication PMC2175169 (The Journal of Cell Biology, 2000)
